T1: adrenodoxin (human, UniProt P10109 61-184)
T1 sequence (looked up): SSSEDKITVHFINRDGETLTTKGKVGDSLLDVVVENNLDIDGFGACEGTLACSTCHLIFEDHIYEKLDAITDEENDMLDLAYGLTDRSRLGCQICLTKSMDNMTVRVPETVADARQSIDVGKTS

B1: cytochrome P450 CYP11A1 (cholesterol side chain cleavage enzyme) (enzyme, human)
chain: STRSPRPFNEIPSPGDNGWLNLYHFWRETGTHKVHLHHVQNFQKYGPIYREKLGNVESVYVIDPEDVALLFKSEGPNPERFLIPPWVAYHQYYQRPIGVLLKKSAAWKKDRVALNQEVMAPEATKNFLPLLDAVSRDFVSVLHRRIKKAGSGNYSGDISDDLFRFAFESITNVIFGERQGMLEEVVNPEAQRFIDAIYQMFHTSVPMLNLPPDLFRLFRTKTWKDHVAAWDVIFSKADIYTQNFYWELRQKGSVHHDYRGILYRLLGDSKMSFEDIKANVTEMLAGGVDTTSMTLQWHLYEMARNLKVQDMLRAEVLAARHQAQGDMATMLQLVPLLKASIKETLRLHPISVTLQRYLVNDLVLRDYMIPAKTLVQVAIYALGREPTFFFDPENFDPTRWLSKDKNITYFRNLGFGWGVRQCLGRRIAELEMTIFLINMLENFRVEIQHLSDVGTTFNLILMPEKPISFTFWPFNQEATQQ
B2: cytochrome P450 CYP11B1 (11ß-hydroxylase) (enzyme, human)
chain: VPRTVLPFEAMPRRPGNRWLRLLQIWREQGYEDLHLEVHQTFQELGPIFRYDLGGAGMVCVMLPEDVEKLQQVDSLHPHRMSLEPWVAYRQHRGHKCGVFLLNGPEWRFNRLRLNPEVLSPNAVQRFLPMVDAVARDFSQALKKKVLQNARGSLTLDVQPSIFHYTIEASNLALFGERLGLVGHSPSSASLNFLHALEVMFKSTVQLMFMPRSLSRWTSPKVWKEHFEAWDCIFQYGDNCIQKIYQELAFSRPQQYTSIVAELLLNAELSPDAIKANSMELTAGSVDTTVFPLLMTLFELARNPNVQQALRQESLAAAASISEHPQKATTELPLLRAALKETLRLYPVGLFLERVASSDLVLQNYHIPAGTLVRVFLYSLGRNPALFPRPERYNPQRWLDIRGSGRNFYHVPFGFGMRQCLGRRLAEAEMLLLLHHVLKHLQVETLTQEDIKMVYSFILRPSMFPLLTFRAIN
B3: cytochrome P450 CYP11B2 (aldosterone synthase) (enzyme, human, UniProt P19099 25-503, looked up)
chain: GTRAARAPRTVLPFEAMPQHPGNRWLRLLQIWREQGYEHLHLEMHQTFQELGPIFRYNLGGPRMVCVMLPEDVEKLQQVDSLHPCRMILEPWVAYRQHRGHKCGVFLLNGPEWRFNRLRLNPDVLSPKAVQRFLPMVDAVARDFSQALKKKVLQNARGSLTLDVQPSIFHYTIEASNLALFGERLGLVGHSPSSASLNFLHALEVMFKSTVQLMFMPRSLSRWISPKVWKEHFEAWDCIFQYGDNCIQKIYQELAFNRPQHYTGIVAELLLKAELSLEAIKANSMELTAGSVDTTAFPLLMTLFELARNPDVQQILRQESLAAAASISEHPQKATTELPLLRAALKETLRLYPVGLFLERVVSSDLVLQNYHIPAGTLVQVFLYSLGRNAALFPRPERYNPQRWLDIRGSGRNFHHVPFGFGMRQCLGRRLAEAEMLLLLHHVLKHFLVETLTQEDIKMVYSFILRPGTSPLLTFRAIN

Key:
Experiment in all cases: SPR
adrenodoxin [1] = molecular target: T1, adrenodoxin
adrenodoxin [2] = molecular target: T1, adrenodoxin; remark: listed apart in the source
adrenodoxin [3] = molecular target: T1, adrenodoxin; remark: listed apart in the source
adrenodoxin [4] = molecular target: T1, adrenodoxin; remark: listed apart in the source
adrenodoxin [5] = molecular target: T1, adrenodoxin; remark: listed apart in the source
adrenodoxin [6] = molecular target: T1, adrenodoxin; remark: listed apart in the source
adrenodoxin [7] = molecular target: T1, adrenodoxin; remark: listed apart in the source
adrenodoxin [8] = molecular target: T1, adrenodoxin; remark: listed apart in the source
adrenodoxin [9] = molecular target: T1, adrenodoxin; remark: listed apart in the source

Binder | fold change of koff with cholesterol against ligand-free (adrenodoxin [1]) [fold] | fold increase of kon with cholesterol against ligand-free (adrenodoxin [1]) [fold] | fold increase of Kd with pregnenolone against cholesterol (adrenodoxin [2]) [fold] | fold decrease of kon with 25-hydroxycholesterol against ligand-free (adrenodoxin [3]) [fold] | fold increase of Kd with 25-hydroxycholesterol against ligand-free (adrenodoxin [3]) [fold] | fold decrease of kon with 20S-hydroxycholesterol against ligand-free (adrenodoxin [4]) [fold] | fold increase of Kd with 20S-hydroxycholesterol against ligand-free (adrenodoxin [4]) [fold] | fold increase of Kd with 22R-hydroxycholesterol against cholesterol (adrenodoxin [5]) [fold] | fold decrease of kon with 20R,22R-dihydroxycholesterol against ligand-free (adrenodoxin [6]) [fold] | fold increase of Kd with 20R,22R-dihydroxycholesterol against cholesterol (adrenodoxin [6]) [fold] | fold increase of Kd with 20R,22R-dihydroxycholesterol against ligand-free (adrenodoxin [6]) [fold] | fold increase of koff with 20R,22R-dihydroxycholesterol against ligand-free (adrenodoxin [6]) [fold] | fold increase of koff with 11-deoxycortisol against ligand-free (adrenodoxin [7]) [fold] | fold increase of kon with 11-deoxycortisol against ligand-free (adrenodoxin [7]) [fold] | fold increase of Kd with 11-deoxycorticosterone against ligand-free (adrenodoxin [8]) [fold] | fold increase of koff with 11-deoxycorticosterone against ligand-free (adrenodoxin [8]) [fold] | fold increase of kon with 11-deoxycorticosterone against ligand-free (adrenodoxin [8]) [fold] | fold change of Kd with corticosterone against ligand-free (adrenodoxin [9]) [fold] | fold increase of Kd with 11-deoxycortisol against ligand-free (adrenodoxin [7]) [fold]
B1 | ~1.5 | 4 | ~21 | 2 | 4.6 | 2 | 3.1 | 4 | 2 | ~10 | ~3.4 | ~1.8 | – | – | – | – | – | – | –
B2 | – | – | – | – | – | – | – | – | – | – | – | – | ~3.2 | 4 | 2.4 | 4.4 | ~2 | – | –
B3 | – | – | – | – | – | – | – | – | – | – | – | – | – | – | 11 | 7 | – | 1.7 | 4.7

From doi:10.1101/2020.11.13.381095 (bioRxiv, 2020)
